Source: patent publication US20140140998

How the values were obtained:
[1] = test system: TM-V129A/I130A TβRI mutant (HA-tagged, in HA-caTβRI)
[2] = test system: TβRI intracellular domain fragment (TβRI ICD), about 34 kDa
Sequence of TβRI intracellular domain fragment (TβRI ICD), about 34 kDa (chain, as listed by the source): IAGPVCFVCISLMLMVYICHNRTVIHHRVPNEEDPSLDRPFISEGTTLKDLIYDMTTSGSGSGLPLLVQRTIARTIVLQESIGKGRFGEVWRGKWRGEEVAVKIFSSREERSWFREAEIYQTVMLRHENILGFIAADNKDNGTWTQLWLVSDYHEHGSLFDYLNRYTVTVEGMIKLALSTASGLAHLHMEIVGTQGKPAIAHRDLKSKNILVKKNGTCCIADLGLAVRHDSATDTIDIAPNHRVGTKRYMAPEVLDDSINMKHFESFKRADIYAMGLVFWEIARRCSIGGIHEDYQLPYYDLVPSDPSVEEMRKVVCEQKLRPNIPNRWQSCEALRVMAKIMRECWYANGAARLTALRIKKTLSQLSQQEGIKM

| Substance | production of TβRI ICD (immunoblot) [1] | acetylation of the TβRI ICD (immunoblot with anti-acetyl-lysine) [2] |
| --- | --- | --- |
| Presenilin 1 (PS1), endogenous | Production of TβRI ICD was observed only in the TGF-treated cells transfected with caTβRI construct |  |
| p300, endogenous |  | acetylation of the TβRI ICD was verified using an antibody specific for acetyl-lysine |
